Laboratory results taken from paper PMC11082181.

What was measured:
[1] = target: Relatlimab analog, anti-LAG-3 benchmark (human); experiment: BLI; ZGGS15 or BM (4 µg/mL) loaded to protein A probes; FcγRI 30 to 1 nM in solution; 150 s association, 200 s dissociation; BLI kinetics assay buffer; 25 °C, 1000 rpm
[2] = target: ZGGS15, anti-LAG-3/TIGIT bispecific IgG4 antibody (human); experiment: as above

Sequence of Relatlimab analog, anti-LAG-3 benchmark (human) (heavy, as listed by the source, chain 1 of 2): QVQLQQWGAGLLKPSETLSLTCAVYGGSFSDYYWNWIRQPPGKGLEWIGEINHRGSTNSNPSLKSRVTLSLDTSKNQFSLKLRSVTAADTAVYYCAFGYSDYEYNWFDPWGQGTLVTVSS
Sequence of Relatlimab analog, anti-LAG-3 benchmark (human) (light, as listed by the source, chain 2 of 2): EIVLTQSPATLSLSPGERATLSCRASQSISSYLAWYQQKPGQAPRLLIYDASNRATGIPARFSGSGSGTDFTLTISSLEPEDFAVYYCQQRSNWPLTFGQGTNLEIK

“human Fc-gamma receptor I (FcγRI) (from UniProt P12314 16-374)” was tested, and the Kd [1] was 3 nM and the Kd [2] was 2.6 nM.
